# Substitutions are numbered along the chain they refer to. Names may count otherwise. “And” between values parts separate entries of the source, which are not always exact repeats. Equal values may be shown once. Read-outs that look alike come from different tables or passages of the source.
# B1: 1D8.3C2, Fab displayed on phage (Fab, V domains shown)
# VH: EVQLVESGGGLVQPGGSLRLSCAASGFTFTDYDIHWVRQAPGKGLEWVAWISPYSGYTDYADSVKGRFTISADTSKNTAYLQMNSLRAEDTAVYYCAREAGSRLLSVMDYWGQGTLVTVSS
# VL: DIQMTQSPSSLSASVGDRVTITCRASQGVDNSVAWYQQKPGKAPKLLIYSASFLYSGVPSRFSGSGSGTDFTLTISSLQPEDFATYYCQQSYTTPPTFGQGTKVEIK
# notes: Fab on M13 phage
# B2: 1E3, Fab displayed on phage (Fab, V domains shown)
# VH: EVQLVESGGGLVQPGGSLRLSCAASGFTFSNTYISWVRQAPGKGLEWVASITPSSGSTDYADSVKGRFTISADTSKNTAYLQMNSLRAEDTAVYYCARTWLLRWVMDYWGQGTLVTVSS
# VL: B1 VL with G28D, D30S, N31T, S32A
# notes: Fab on M13 phage (heavy chain fused to gpIII, gD tag on light chain); Fab-zip (bivalent) in the first spot ELISA, monovalent afterwards; also called WT; parental 1E3
# B3: 1D8, Fab displayed on phage (Fab, V domains shown)
# VH: B1 VH with W50G, S55G
# VL: B1 VL with G28D, D30S, N31T, S32A
# notes: Fab on M13 phage (heavy chain fused to gpIII, gD tag on light chain); Fab-zip (bivalent) in the first spot ELISA, monovalent afterwards; also called parental wild-type 1D8
# B4: 1A10, Fab displayed on phage (Fab, V domains shown)
# VH: EVQLVESGGGLVQPGGSLRLSCAASGFNIYYSSIHWVRQAPGKGLEWVASIYPYYGYTSYADSVKGRFTISADTSKNTAYLQMNSLRAEDTAVYYCARGYSWYYGSPAFDYWGQGTLVTVSS
# VL: B1 VL with G28S, D30S, N31S, S32A, F53S, G66R, S91H
# notes: Fab on M13 phage
# B5: 1F11/3F5 double mutant, Fab displayed on phage (Fab, V domains shown)
# VH: B2 VH with S57Q
# VL: B1 VL with G28D, D30S, N31T, S32A, S52K
# notes: S52K (L2) and S56Q (H2)
# B6: 2H5/3F5 double mutant, Fab displayed on phage (Fab, name in Kabat numbering, V domains shown)
# VH: B2 VH with S57Q
# VL: B1 VL with G28D, D30S, N31T, S32A, T94N
# B7: 1D8.4F5, Fab displayed on phage (Fab, V domains shown)
# VH: B1 VH with Y32D, W50E, S55G
# VL: B1 VL with G28D, D30S, N31T, S32A, Y92F
# notes: Fab on M13 phage
# B8: 2C11/3F5 double mutant, Fab displayed on phage (Fab, name in Kabat numbering, V domains shown)
# VH: B2 VH with S57Q
# VL: B1 VL with G28D, D30S, N31T, S32A, T94Q
# B9: 1F11/Y102L T110A (antibody, V domains shown)
# VH: B2 VH with Y108L, T116A
# VL: B1 VL with G28D, D30S, N31T, S32A, S52K
# notes: also called 1F11/Y102L T110A IgG
# B10: 1F11/3F5/Y102L IgG (antibody, V domains shown)
# VH: B2 VH with S57Q, Y108L
# VL: B1 VL with G28D, D30S, N31T, S32A, S52K
# notes: also called triple mutant; hybrid anti-linear polyubiquitin antibody
# B11: 1F11/3F5/Y102L T110A (antibody, V domains shown)
# VH: B2 VH with S57Q, Y108L, T116A
# VL: B1 VL with G28D, D30S, N31T, S32A, S52K
# notes: also called 1F11/3F5/Y102L T110A IgG
# B12: 3F5/Y102L IgG (antibody, V domains shown)
# VH: B2 VH with S57Q, Y108L
# VL: B1 VL with G28D, D30S, N31T, S32A
# notes: Human kappa IgG1
# Legend:
# [1] = biological target: T1, linear diubiquitin (Boston Biochem) (human, UniProt P0CG48 1-152); experiment: phage IC50 competition ELISA: soluble linear diUb against plate-coated linear diUb for the 1D8.3C2 Fab-phage
# T1 construct: Bought product
# [2] = biological target: T1, linear diubiquitin (Boston Biochem); experiment: phage IC50 competition ELISA with soluble linear diubiquitin
# Experimental: (§1) An initial titer ELISA was done to determine the amount of phage at which a signal of OD₄₅₀=0.5 would be achieved. […] The coated plates were blocked with 200 μL/well of 2.5% milk in PBST for one hour at 25° C. with shaking. Twelve two-fold serial dilutions of the phage were made in 2.5% milk in PBST from OD₂₆₈=4.0 to OD₂₆₈=0.002. After one hour, the blocking buffer was dumped off of the plate and 100 μL/well of each phage dilution was added and incubated at 25° C. for 15 minutes with shaking. The plate was then washed six times with PBST using a plate washer. A 1:5000 dilution of an anti-M13 phage-HRP-conjugated secondary antibody (GE Healthcare) in PBST was used for detection of phage binding. 100 μL/well of the secondary dilution was added and the plate was incubated at 25° C. for 30 minutes with shaking. The plate was then washed 12 times with PBST using a plate washer and twice with PBS manually. Bound secondary antibody was detected using a TMB substrate (KPL) followed by quenching with an equal volume of 1 M phosphoric acid.
# [3] = biological target: T1, linear diubiquitin (Boston Biochem); experiment: phage IC50 competition ELISA: Fab-phage with titrated soluble linear diubiquitin, unbound phage caught on coated linear diubiquitin; clone 1E3
# Experimental: as §1
# [4] = biological target: T1, linear diubiquitin (Boston Biochem); experiment: phage IC50 competition ELISA: Fab-phage with titrated soluble linear diubiquitin, unbound phage caught on coated linear diubiquitin; clone 1D8
# Experimental: as §1
# [5] = biological target: T2, K48-linked polyubiquitin 2-7 (Boston Biochem) (human, UniProt P0CG48 1-76, isopeptide bonds between the C-terminus of one ubiquitin and Lys48 of the next); experiment: phage spot ELISA, 2 ug/mL coated antigen, anti-M13-HRP
# T2 construct: also called K48-linked chains
# Experimental: (§2) Ninety-six individual clones from the second round of sorting of the VH library, 192 clones from the third round of sorting of the VH library, 96 clones from the fourth round of sorting of the VH library, and 192 clones from the fourth round of sorting of the common light chain library were screened. […] Individual clones were grown up in a 96-well format in 1 mL of 2YT broth containing 50 μg/mL carbenicillin and 1×10¹⁰ phage/mL M13K07 helper phage at 37° C. overnight with shaking. Cells were pelleted by spinning at 3000 rpm for ten minutes. […] All of the Fab libraries contain a carboxy-terminal gD tag on the light chain which allows for assessment of display level by anti-gD antibody binding. The panel of ubiquitin proteins was immobilized on 384-well Maxisorb immunoplates (NUNC). Plates were coated at 4° C. overnight with 2 μg/mL of each protein in 50 mM sodium carbonate buffer, pH 9.6. The coated plates were blocked with 60 μL/well of 2.5% milk in PBST for one hour at 25° C. with shaking. After one hour, the blocking buffer was dumped off of the plate and 20 μL/well of PBST and 10 μL/well of phage supernatant were added. Plates were incubated at 25° C. for one hour with shaking. The plate was then washed six times with PBST by manually filling the wells and dumping off the wash buffer. A 1:5,000 dilution of an anti-M13 horseradish peroxidase (HRP)-conjugated secondary antibody (GE Healthcare) in PBST was used for detection of phage binding. 30 μL/well of the secondary dilution was added and the plate was incubated at 25° C. for 30 minutes with shaking. The plate was then washed six times with PBST and twice with PBS, both manually. Bound secondary antibody was detected using a TMB substrate (KPL) followed by quenching with an equal volume of 1 M phosphoric acid. The absorbance was read at 450 nm.
# [6] = biological target: T3, monoubiquitin (Boston Biochem) (human, UniProt P0CG48 1-76); experiment: as above
# T3 construct: Bought product
# Experimental: as §2
# [7] = biological target: T4, K11-linked diubiquitin (Genentech) (human, UniProt P0CG48 1-76, isopeptide bond between the C-terminus of one ubiquitin and Lys11 of the other); experiment: as above
# T4 construct: also called K11 diUb
# Experimental: as §2
# [8] = biological target: T5, K63-linked polyubiquitin 2-7 (Boston Biochem) (human, UniProt P0CG48 1-76, isopeptide bonds between the C-terminus of one ubiquitin and Lys63 of the next); experiment: as above
# T5 construct: also called K63-linked chains
# Experimental: as §2
# [9] = biological target: T6, K48-linked diubiquitin (Boston Biochem) (human, UniProt P0CG48 1-76, isopeptide bond between the C-terminus of one ubiquitin and Lys48 of the other); experiment: phage specificity ELISA, 1 ug/mL coated antigen, anti-M13-HRP
# T6 construct: Bought product; also called K48 diUb
# [10] = biological target: T3, monoubiquitin (Boston Biochem); experiment: as above
# [11] = biological target: T4, K11-linked diubiquitin (Genentech); experiment: as above
# [12] = biological target: T6, K48-linked diubiquitin (Boston Biochem); experiment: as above; remark: listed apart in the source
# [13] = biological target: T3, monoubiquitin (Boston Biochem); experiment: as above; remark: listed apart in the source
# [14] = biological target: T4, K11-linked diubiquitin (Genentech); experiment: as above; remark: listed apart in the source
# [15] = biological target: T1, linear diubiquitin (Boston Biochem); experiment: phage IC50 competition ELISA with soluble linear diubiquitin; remark: listed apart in the source
# [16] = biological target: T1, linear diubiquitin (Boston Biochem); experiment: western blot, 1 ug/mL IgG, LI-COR Odyssey quantification; Ub2 bands seen at 111 (faint), 333 and 1000 ng
# [17] = biological target: T1, linear diubiquitin (Boston Biochem); experiment: western blot, 1 ug/mL IgG, LI-COR Odyssey quantification; Ub2 bands seen at 37 (faint), 111, 333 and 1000 ng
binder,measurement,setting,value
B1,binding result,[1],binds
B2,IC50,[2],29 nM and 24 nM and 25 nM
same,IC50,[3],80 nM
B3,IC50,[4],~5000 nM
B4,binding result,[5],no binding
same,binding result,[6],no binding
same,binding result,[7],no binding
same,binding result,[8],no binding
B5,binding result,[9],no binding (tested: phage OD268 1)
same,binding result,[10],no binding (tested: phage OD268 1)
same,binding result,[11],no binding (tested: phage OD268 1)
same,IC50,[2],5 nM
B6,binding result,[12],no binding (tested: phage OD268 1)
same,binding result,[13],no binding (tested: phage OD268 1)
same,binding result,[14],no binding (tested: phage OD268 1)
same,IC50,[2],8 nM
B7,IC50,[15],~2000 nM
B8,binding result,[12],no binding (tested: phage OD268 1)
same,binding result,[13],no binding (tested: phage OD268 1)
same,binding result,[14],no binding (tested: phage OD268 1)
same,IC50,[2],10 nM
B9,signal of the Ub2 band at 1000 ng linear diUb (number under the arrow),[16],8.4
B10,signal of the Ub2 band at 1000 ng linear diUb (number under the arrow),[17],15.5
B11,signal of the Ub2 band at 1000 ng linear diUb (number under the arrow),[17],5.5
B12,signal of the Ub2 band at 1000 ng linear diUb (number under the arrow),[17],18
